From paper PMC7170532 (2020)

T1: pro-myostatin (uncleavable precursor, D99A/R263A/R266A) (human, UniProt O14793 24-375, D99A | R263A | R266A)
T1 sequence: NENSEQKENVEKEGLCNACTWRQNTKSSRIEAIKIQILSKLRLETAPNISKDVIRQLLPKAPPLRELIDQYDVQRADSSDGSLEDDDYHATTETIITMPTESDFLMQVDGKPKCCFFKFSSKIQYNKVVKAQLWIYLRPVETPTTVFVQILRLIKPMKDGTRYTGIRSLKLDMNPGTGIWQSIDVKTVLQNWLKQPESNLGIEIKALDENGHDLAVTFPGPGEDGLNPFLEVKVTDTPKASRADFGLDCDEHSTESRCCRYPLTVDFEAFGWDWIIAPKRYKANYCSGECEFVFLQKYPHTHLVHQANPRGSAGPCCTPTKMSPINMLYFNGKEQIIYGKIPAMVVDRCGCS


Experiments:
[1] = molecular target: latent myostatin (human, UniProt O14793 267-375); assay: BLI
[2] = molecular target: T1, pro-myostatin (uncleavable precursor, …); assay: BLI

Kd [1] [nM] | Kd [2] [nM] | Binder
< 0.001 | < 0.001 | 29H4-16 human IgG4 (antibody, V domains shown) VH: QIQLVQSGGGVVQPGRSLRLSCAASGFTFSSYGMHWVRQAPGKGLEWVAVISYDGSRKYYADSVKGRFTISRDNSKNTLYLQMNSLRAEDTAVYYCARDLLVRFLYWSHYYGMDVWGQGTTVTVSS VL: QPVLTQPPSASGTPGQRVTISCSGSSSNIGSNPVHWYQQLPGTAPKLLIYDDNQRPSGVPDRFSGSKSGTSASLVISGLQSDDEADYYCAAWDDSLNSVFGGGTKLTVL
1.76 | 1.51 | 29H4-16 Fab (Fab, V domains shown) VH: QIQLVQSGGGVVQPGRSLRLSCAASGFTFSSYGMHWVRQAPGKGLEWVAVISYDGSRKYYADSVKGRFTISRDNSKNTLYLQMNSLRAEDTAVYYCARDLLVRFLYWSHYYGMDVWGQGTTVTVSS VL: QPVLTQPPSASGTPGQRVTISCSGSSSNIGSNPVHWYQQLPGTAPKLLIYDDNQRPSGVPDRFSGSKSGTSASLVISGLQSDDEADYYCAAWDDSLNSVFGGGTKLTVL
